How the values were obtained:
human CXCR6 [1] = target: T1, human CXCR6 (human, UniProt O00574 1-342); assay: screening on cells overexpressing CXCR6, one single concentration, yes/no
T1 construct: also called hu-CXCR6; wild type human CXCR6

cynomolgus monkey CXCR6 [2] = target: T2, cynomolgus monkey CXCR6 (cynomolgus monkey, UniProt Q9BDS6 1-343); assay: as above
T2 construct: also called cyno-CXCR6; cyno monkey CXCR6
T2 sequence: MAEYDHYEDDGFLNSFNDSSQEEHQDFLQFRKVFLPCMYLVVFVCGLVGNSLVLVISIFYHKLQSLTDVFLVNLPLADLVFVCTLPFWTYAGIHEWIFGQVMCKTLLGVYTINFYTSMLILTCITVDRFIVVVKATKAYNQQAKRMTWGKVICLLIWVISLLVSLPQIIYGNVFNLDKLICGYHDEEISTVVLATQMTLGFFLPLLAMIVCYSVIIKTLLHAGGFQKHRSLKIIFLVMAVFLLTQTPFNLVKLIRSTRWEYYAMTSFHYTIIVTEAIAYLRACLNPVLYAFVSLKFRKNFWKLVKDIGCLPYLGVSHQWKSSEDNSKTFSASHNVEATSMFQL

human CXCR6 [3] = target: T1, human CXCR6; assay: description of the chimeric clones used in the ADCC example
cynomolgus monkey CXCR6 [4] = target: T2, cynomolgus monkey CXCR6; assay: as above
cynomolgus monkey CXCR6 [5] = target: T2, cynomolgus monkey CXCR6; assay: flow cytometry on cells overexpressing CXCR6, serial dilutions of antibody (FIG. 11)
Procedure: Wild type C57BL/6 mice were immunized and boosted with a full-length human CXCR6-vector. Prior to immunization, the vector was tested for cell surface expression of native human CXCR6 on transfected mammalian cell lines by flow cytometry to ensure a successful immunization and screening. Genetic immunization was performed by ballistically delivering DNA-coated gold particles into the skin of wild type C57BL/6 mice to elicit a target-specific immune response. After the serum test showing satisfactory titer of antibody binding to both human CXCR6 and cyno monkey CXCR6, mice were sacrificed. A single B cell platform was used to sequentially screen bone marrow antibody-producing plasma cells for binding to both human and cyno monkey CXCR6. The conventional hybridoma technique was used on splenocytes and lymph node cells. […] After sequencing the VH and VL, clones with distinct CDRs were further expressed as full-length murine antibodies or human chimeric antibodies. […]
Cells overexpressing human-CXCR6 (hu-CXCR6), cyno monkey CXCR6 (cyno-CXCR6) or mouse CXCR6 were cultured in DMEM medium containing 10% FCS. […] After two rounds of washing with PBS/0.5% BSA buffer, cells were further stained with fluorescence dye-labeled secondary antibody. After two more rounds of washing, cells were resuspended in PBS/0.5% BSA, fixed, and collected by flow cytometry and analyzed.

human CXCR6 [6] = target: T1, human CXCR6; assay: flow cytometry on human CXCR6 over-expressing cells, no huCXCL-16 (FIG. 16)
Procedure: (§1) After washing and staining with secondary antibody, cells were analyzed by flow cytometry. The ED₅₀ for huCXCL-16 binding to human CXCR6 is 10-50 ng/ml. Thus, 1,500 ng/ml huCXCL-16 is an overwhelming concentration for competing with chimeric Genovac2-C1. In the absence of huCXCL-16, the ED₅₀ for chimeric Genovac2-C1 binding to human CXCR6 was 0.5 μg/ml (FIG. 16). In the presence of huCXCL-16 (1,500 ng/ml), the ED₅₀ for chimeric Genovac2-C1 binding to human CXCR6 was 1.5 μg/ml (FIG. 16). Accordingly, the human/mouse chimeric mAb retains the binding specificity and affinity in the presence of CXCL-16.

human CXCR6 [7] = target: T1, human CXCR6; assay: flow cytometry on human CXCR6 over-expressing cells pre-incubated with competitor huCXCL-16 at 1,500 ng/ml (FIG. 16)
Procedure: as §1

T1 sequence (O00574 whole entry): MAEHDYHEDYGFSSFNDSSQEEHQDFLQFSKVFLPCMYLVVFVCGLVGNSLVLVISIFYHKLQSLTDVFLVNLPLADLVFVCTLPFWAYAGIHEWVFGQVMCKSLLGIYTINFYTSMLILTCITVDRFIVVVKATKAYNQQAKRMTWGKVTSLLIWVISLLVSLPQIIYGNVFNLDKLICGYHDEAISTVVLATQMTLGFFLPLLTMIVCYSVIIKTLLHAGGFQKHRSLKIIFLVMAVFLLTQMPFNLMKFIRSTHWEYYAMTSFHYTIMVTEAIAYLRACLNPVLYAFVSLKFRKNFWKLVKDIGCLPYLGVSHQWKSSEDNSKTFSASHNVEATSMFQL

B1: CNGs-3B2 (antibody, V domains shown)
VH: DVQLVESGGGLVQPGGSRTLSCAASGFTFSSFGMHWVRQAPEKGLEWVAYISSGSTTIYYADTVKGRFTISRDNPKNTLFLQVTSLRSEDTAVYYCTRSHWPYWYFDVWGAGTTVTVSS
VL: DVQITQSPSYLAASPGETITINCRASKSISKYLAWYQEKPGKTNKLLIYSGSTLQSGNPSRFSGSGSGTDFTLTISRLEPEDCAMYYCQQHNEFPWTFGGGTKLEIK
notes: Mouse-derived; tested at the screening stage
Does B1 bind (human CXCR6 [1])?
Result: binds

Does B1 bind (cynomolgus monkey CXCR6 [2])?
Result: binds

B2: CNE-6E5-C1 (antibody, V domains shown)
VH: QVTLKESGPGILQSSQILSLTCSFSGFSLITSGMGVSWIRKTSGKGLEWLAHIYWDDEKRYNPSLKSRLTISKGTSRNQVFLRITSVDTTDTATYFCVRREDFGDGFDYWGQGTTLTVSP
VL: DVLMTQAPLSLPVSLGDQASISCRSSQTIVHSNGVTYLEWYLQKPGQSPKLLIYKVSNRFSGVPDRFSGSGSGTYFTLKISRVEAEDLGVYYCFQGSHVPPTFGGGTKLEIK
notes: as for B1
Does B2 bind (human CXCR6 [1])?
Result: binds

Does B2 bind (cynomolgus monkey CXCR6 [2])?
Result: binds

B3: Beacon2-F1 (antibody, V domains shown)
VH: EVQLVESGGDLVKPGGSLKLSCAASGFTFSSYGMSWVRQTPDKRLEWVATISSGGSYTYYPDSVKGRFPISRDNAKNTLYQQMSSLNSEDTAMYYCARLYGNYPYFAMDYWGQGTSVTVSS
VL: DIVMTQSQKFMSTSVGDRVSITCKASQNVGTAVAWYQQKPGQSPKLLIFSASNRYTGVPDRFTGSGSGTDFTLTISNMQSEDLADYFCQQYSSYPYTFGGGTKLEIK
notes: as for B1
Does B3 bind (human CXCR6 [1])?
Result: binds

Does B3 bind (cynomolgus monkey CXCR6 [2])?
Result: binds

B4: Beacon1-A4 (antibody, V domains shown)
VH: EVQLQQSGPVLVKPGASVKMSCKTSGYTFTDYYMNWVKQSHGKSLEWIGVIKPYSGRTSYDQKFKDKATLTVDKSSSTAYMELNSLTSEDSAVYYCAREGVSITTVGSSLYYYPMDYWGQGTSVTVSS
VL: DIVLTQSPATLSVTPGASVSLSCRASQSISNNLHWYQQKSHESLRLLIKYASQSVSGIPSRFSGSGSGTDFTLTINSVETEDFGMYFCQQSNSWPRTFGGGTKLEIK
notes: as for B1
Does B4 bind (human CXCR6 [1])?
Result: binds

B5: chimeric COXs-1B10 (antibody, V domains shown)
VH: QVTLKESGPGILKASQTLSLTCSFSGFSLSTSGMGIGWIRQPSGKGPEWLAHIWWDDEKYYRPSLKSRLTVSKDTSRNQVFLNITSVDTTDSASYYCVQRTPGRFAYWGQGTLVTVST
VL: DIVMTQSPSSLAVSIGQKVIMSCKSSQSLLSSRTQKNYLAWYQQKPGQSPKLLVYFASIRESGVPDRFTGSGSGTDFTLTISTVQAEDLAVYYCQQYFLTPYTFGGGTKLEIK
notes: also called COXs-1B10 human chimeric mAb
Does B5 bind (human CXCR6 [3])?
Result: binds

B6: Genovac1-D12 (antibody, V domains shown)
VH: EVKLEESGGGLVQPGGSMKLSCVASGFTFSNYWMNWVRQSPEKGLKWVAQIRLKSDNYGTHYAESVKGRFTISRDDSKGSVYLQMNNLRAEDTGIYYCTSNAWFAYWGQGTLVTVSA
VL: DIVMTQAAPSVPVTPGESVSISCRSSKSLLHSNGNTYLFWFLQRPGQSPQRLISYMSNLASGVPDRFSGRGSGTDFTLRISRVEAEDVGVYYCLLSLEYPYTFGSGTRLEIT
notes: as for B1
Does B6 bind (human CXCR6 [1])?
Result: binds

B7: CNE-6E10 human/mouse chimeric antibody with human IgG1 Fc (antibody, V domains shown)
VH: EVQLVESGGGLVQPKGSLKLSCAASGFSFNTYAMNWVRQAPGKGLEWVARIRSKTNSYETYYADSVKDRFTISRDDSESMLYLQMNNLKTEDTAVYYCLSHGAFAYWGQGTLVTVSA
VL: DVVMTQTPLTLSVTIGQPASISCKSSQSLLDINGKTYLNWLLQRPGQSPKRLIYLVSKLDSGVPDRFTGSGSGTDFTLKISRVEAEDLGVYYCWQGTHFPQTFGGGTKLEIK
Does B7 bind (human CXCR6 [3])?
Result: binds

B8: Beacon2-A7 (antibody, V domains shown)
VH: EMKLEESGGGLVQPGGSMKLSCVASGFTFSNYWMSWVRQSPEKGLQWVGQIRLKSDNYATHYAESVKGKFTISRDDSKSSVYLQMNNLRAEDTGIYYCAPYSNWGYWGQGTTLTVSS
VL: DIVMTQAAPSIPVTPGGSVSISCRSTKSLLHTNGNTYLYWFLQRPGQSPQVLIYRMSNLASGVPDRFSGSGSGTAFTLRISRVEAEDVGVYYCMQYLEYPYTFGSGTKLEIK
notes: as for B1
Does B8 bind (human CXCR6 [1])?
Result: binds

B9: Genovac1-G2 human/mouse chimeric antibody with human IgG1 Fc (antibody, V domains shown)
VH: DVQLQESGPGLVKPSQSLSLTCSVTGYSITSGYYWNWIRQFPGNKLEWMGYIRYDGSNNYNPSLKNRISITRDTSKNQFFLKLNSVTTEDTATYYCARDGYSTYFDYWGQGTTLTVSS
VL: DIQMTQSPASLSASVGETVTITCRASENIYSYLAWYQQKQGKSPQLLVYNAKTLAEGVPSRFSGSGSGTQFSLKINSLQPEDFGSYYCQHHYGTPWTFGGGTKLEIK
Does B9 bind (human CXCR6 [3])?
Result: binds

Does B9 bind (cynomolgus monkey CXCR6 [4])?
Result: binds

B10: Genovac1-G2 (antibody, V domains shown)
VH: DVQLQESGPGLVKPSQSLSLTCSVTGYSITSGYYWNWIRQFPGNKLEWMGYIRYDGSNNYNPSLKNRISITRDTSKNQFFLKLNSVTTEDTATYYCARDGYSTYFDYWGQGTTLTVSS
VL: DIQMTQSPASLSASVGETVTITCRASENIYSYLAWYQQKQGKSPQLLVYNAKTLAEGVPSRFSGSGSGTQFSLKINSLQPEDFGSYYCQHHYGTPWTFGGGTKLEIK
notes: Mouse-derived
Does B10 bind (human CXCR6 [1])?
Result: binds

Does B10 bind (cynomolgus monkey CXCR6 [5])?
Result: binds

B11: chimeric Genovac2-C1 (antibody, V domains shown)
VH: DVKLVESGGGLVKPGGSLKLSCAASGFTFSSYTMSWVRQTPEKRLEWVATISSGGSYTYYPDSVKGRFTISRDNAKNTLYLQMSSLKSEDTAMYYCTRGGGNYPFWFFDVWGAGTTVTVSS
VL: DIQMTQSPASLSASVGETVTITCRASENIYSYLAWYQQKQGKSPQLLVYNAKTLAEGVPSRFSGSGSGTQFSLKIKSLQPEDFGSYYCQHHYGIPRTFGGGTKVETK
notes: also called Genovac2-C1 human chimeric mAb; human/mouse chimeric mAb
Which results are given for B11?
binding result (cynomolgus monkey CXCR6 [4]): binds; EC50 (human CXCR6 [6]): 0.5 µg/mL; EC50 (human CXCR6 [7]): 1.5 µg/mL

B12: Genovac2-C1 (antibody, V domains shown)
VH: DVKLVESGGGLVKPGGSLKLSCAASGFTFSSYTMSWVRQTPEKRLEWVATISSGGSYTYYPDSVKGRFTISRDNAKNTLYLQMSSLKSEDTAMYYCTRGGGNYPFWFFDVWGAGTTVTVSS
VL: DIQMTQSPASLSASVGETVTITCRASENIYSYLAWYQQKQGKSPQLLVYNAKTLAEGVPSRFSGSGSGTQFSLKIKSLQPEDFGSYYCQHHYGIPRTFGGGTKVETK
notes: Mouse antibody
Does B12 bind (cynomolgus monkey CXCR6 [5])?
Result: binds

B13: Genovac2-H2 (antibody, V domains shown)
VH: EVKLEESGGGLVRPGGSMKLSCVASGFTFSDYWMNWVRQSPEKGLEWLAQIRLNSGNYAARYAESVKGRFTISRDDSKNSVYLQMINLRAEDTGIYFCTSNAWLANWGQGTLVTVSA
VL: DIQMTQSPASLSVSVGETVTITCRASENIYNNLAWYQQKQGKSPQLLVYAATNLADGVPSRFSGSGSGTQYSLKINSLQSEDFGSYYCQHFWGTPWTFGGGTKLEIK
notes: as for B1
Does B13 bind (human CXCR6 [1])?
Result: binds

B14: COXs-2D2 human/mouse chimeric antibody with human IgG1 Fc (antibody, V domains shown)
VH: EVQLVESGGGLVQPKGSLKLSCTASGFSFDTYAMNWVRQAPGKGLEWIARIRSKSKNYATYYADSVKDRFTISRDDSANILYLQMNNLKTEDTAIYYCLRQGSFDYWGQGTTLTVSS
VL: DVVLTQTPLSLPVSLGDQASISCRSGQRIVHTDGNTYLYWYLQKPGQSPKLLIYRVSNRFSGVPDRFSGSGSGTDFTLKISRVEAEDMGIYYCFQGTHFPYTFGGGTKLEIK
Does B14 bind (human CXCR6 [3])?
Result: binds

From patent publication US20240239907A1 (EDELWEISS IMMUNE, published 2024)
